In PMC3197598:

Molecular target: fibrin (human fibrinogen treated with alpha-thrombin) (human) (UniProt P02679)
Assay: ELISA; human fibrinogen coated overnight on MaxSorb 96-well plates, wells treated with PBS (fibrinogen) or 100 nM alpha-thrombin in 1% sodium-citrate/PBS for one hour at room temperature (fibrin); ClfA in 1% sodium-citrate added at increasing concentrations for one hour; bound ClfA detected with polyclonal anti-ClfA and anti-rabbit-HRP; non-linear regression, one-site saturation

Sequence of clumping factor A (ClfA), purified recombinant (Q53653 40-899): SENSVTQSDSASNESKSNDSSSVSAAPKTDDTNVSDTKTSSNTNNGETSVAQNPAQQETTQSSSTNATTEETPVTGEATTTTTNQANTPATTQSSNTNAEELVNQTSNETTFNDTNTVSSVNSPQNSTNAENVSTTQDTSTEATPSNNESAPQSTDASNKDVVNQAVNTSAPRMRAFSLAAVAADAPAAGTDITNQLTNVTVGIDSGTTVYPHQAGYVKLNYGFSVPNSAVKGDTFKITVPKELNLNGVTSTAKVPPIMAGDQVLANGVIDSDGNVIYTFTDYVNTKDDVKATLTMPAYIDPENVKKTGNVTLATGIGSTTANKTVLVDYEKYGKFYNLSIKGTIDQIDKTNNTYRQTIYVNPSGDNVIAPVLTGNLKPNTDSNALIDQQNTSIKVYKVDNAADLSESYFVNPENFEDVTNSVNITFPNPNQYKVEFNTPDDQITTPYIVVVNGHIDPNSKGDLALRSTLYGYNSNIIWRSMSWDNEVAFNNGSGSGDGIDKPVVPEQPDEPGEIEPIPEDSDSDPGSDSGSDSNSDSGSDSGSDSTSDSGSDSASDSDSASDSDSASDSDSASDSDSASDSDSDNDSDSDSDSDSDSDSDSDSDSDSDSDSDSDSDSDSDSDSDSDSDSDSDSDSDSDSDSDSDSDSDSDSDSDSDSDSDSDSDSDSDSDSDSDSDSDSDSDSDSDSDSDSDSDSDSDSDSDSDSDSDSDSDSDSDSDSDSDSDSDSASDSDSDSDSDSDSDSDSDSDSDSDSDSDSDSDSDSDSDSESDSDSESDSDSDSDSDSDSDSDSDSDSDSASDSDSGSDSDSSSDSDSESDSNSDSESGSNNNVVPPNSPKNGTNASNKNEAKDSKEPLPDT

“clumping factor A (ClfA), purified recombinant (from UniProt Q53653 40-899) (natural protein)” was tested. Which Kd did it give?
The Kd was 0.662 µM.
